Test [1] addresses GST-HMGN1 (UniProt P05114). The test is described as follows: in vitro multiplex nucleosome-bead conjugate binding assay. As to conditions: 0.625 nM GST-HMGN1, three technical replicates, parent: est. 37000, read off a plot.
Test [2] has as its target GST-HMGN1ΔC. Described as above. As to conditions: for response (RFU (background subtracted)): 0.625 nM GST-HMGN1ΔC, three technical replicates, parent: est. 110000, read off a plot; for other: HMGN1ΔC / HMGN1 relative to canonical nuc.: parent: est. 1.0, read off a plot.
For test [3], the target named is GST-HMGN2 (UniProt P05204). Described as above. As to conditions: 0.625 nM GST-HMGN2, three technical replicates, parent: est. 54000, read off a plot.
Test [4] concerns the target GST-HMGN2ΔC. The description is as above. As to conditions: for response (RFU (background subtracted)): 0.625 nM GST-HMGN2ΔC, three technical replicates, parent: est. 100000, read off a plot; for other: HMGN2ΔC / HMGN2 relative to canonical nuc.: parent: est. 1.0, read off a plot.
In test [5] the target is GST-HMGN1 (UniProt P05114). The experiment in a line: in vitro multiplex nucleosome-bead conjugate binding assay (titration). As to conditions: GST-HMGN1 at 5 on the x axis (axis uM; legend nM); raw RFU before normalization; parent: est. 160000; read off a plot.
Test [6] deals with GST-HMGN2 (UniProt P05204). The description is as above. Conditions: GST-HMGN2 at 5 on the x axis (axis uM; legend nM); raw RFU before normalization; parent: est. 370000; read off a plot.

Chain of UniProt P05114 (P05114 whole entry, looked up): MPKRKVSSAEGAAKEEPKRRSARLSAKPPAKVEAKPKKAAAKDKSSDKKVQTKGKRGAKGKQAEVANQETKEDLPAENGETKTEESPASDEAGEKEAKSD

Regarding “canonical unmodified nucleosome (from UniProt P04908;O60814;P68431;P62805) H2A:E61A”, the response (RFU (background subtracted)) in test [1] worked out at 11000; in test [2] it was 66000; in test [3], 16000; in test [4] it was 52000. In addition, the other: HMGN1ΔC / HMGN1 relative to canonical nuc. in test [2] was 1.7. Further, the other: HMGN2ΔC / HMGN2 relative to canonical nuc. in test [4] is 2.1. Further, the response in test [5] stood at 58000 RFU; in test [6] it was 92000 RFU.
On to “canonical unmodified nucleosome (from UniProt P04908;O60814;P68431;P62805) H2A:E92K”, for which the response (RFU (background subtracted)) in test [1] stood at 22000; in test [2], 66000; in test [3], 25000; in test [4], 38000. For the same substance, in test [2], the other: HMGN1ΔC / HMGN1 relative to canonical nuc. was 1.1. Moreover, the other: HMGN2ΔC / HMGN2 relative to canonical nuc. in test [4] was determined as 1.2. In addition, the response in test [5] turned out to be 74000 RFU; in test [6], 110000 RFU.
